Results reported in the MegaScale stability set (Tsuboyama et al. 2023).

B1: EHEE_rd2_0191 (parent)
chain: TTEYTFTDDEEARRAIEELKKRGLTFRYEKHGTTWRVRVD

Variants of: B1
Assay: folding stability dG (cDNA display proteolysis); higher = more stable
Settings: PBS, room temperature

Folding stability dG [kcal/mol], by site and new letter:
E11: F 1.37 | Y 1.29 | R 1.54 | C 2.14 | H 1.77 | K 1.73 | Q 2.1 | G 1.46 | S 2.43 | P 0.754 | A 2.16 | W 1.5 | V 1.85 | D 1.88 | T 2.31 | M 2.02 | N 1.56 | L 1.84 | I 1.78
A15: H 1.73 | V 2.36 | C 3.17 | E 0.719 | M 2.85 | T 1.94 | G 1.06 | R 1.08 | S 1.07 | I 2.02 | Y 2.87 | K 1.97 | N 0.878 | F 4.89 | Q 1.29 | L 2.63 | W 2.9
D8: E 1.29 | I 1.2 | V 1.36 | A 1.24 | R 1.39 | M 0.896 | L 1.08 | Q 1.16 | W 0.65 | T 2.29 | H 1.32 | F 0.882 | Y 0.721 | N 2.41 | K 1.37 | G 1.33 | S 2.44
R13: F 2.31 | E 1.79 | G 1.44 | N 1.68 | M 2.42 | V 1.69 | K 2.04 | H 1.98 | I 2.1 | Y 2.2 | T 1.83 | Q 1.94 | S 1.55 | L 2.3 | W 2.52 | D 0.9 | A 1.85
R14: K 2.12 | Q 1.9 | G 1.35 | I 1.93 | H 1.82 | Y 1.64 | W 1.68 | S 1.75 | N 1.84 | M 1.97 | D 1.45 | F 1.64 | T 1.73 | L 1.91 | E 1.7 | A 2.1 | V 1.78
D9: Q 1.8 | H 1.73 | V 2 | E 2.41 | P 2.3 | T 1.3 | K 1.77 | M 1.83 | I 2.08 | N 1.63 | Y 2.39 | A 2.15 | L 1.91 | S 1.81 | W 3.27 | R 1.92 | F 2.33 | G 1.81
A12: M 2.33 | W 1.63 | F 3.56 | Q -0.999 | C 2.13 | R -0.372 | T 0.424 | L 2.53 | V 1.47 | H 0.073 | G 1.04 | Y 1.66 | I 0.942 | K -0.512 | S -0.064
E10: N 2.12 | T 2.02 | Q 1.95 | L 1.98 | V 2.02 | I 2 | R 1.99 | A 2.09 | H 1.93 | K 1.98 | F 1.98 | M 1.96 | Y 1.96 | S 1.87 | P 0.527 | W 1.93 | D 2.15 | G 2.07
T7: W 1.89 | K 1.62 | N 1.97 | I 1.68 | H 2.13 | G 1.37 | Y 2.47 | P 0.677 | S 1.75 | R 1.59 | V 1.71 | Q 1.88 | M 1.82 | L 1.83
I16: C 1.58 | M 2.23 | N 0.255 | Y -0.65 | V 1.12 | W 0.024 | L 1.64 | F 1.37 | A -0.729 | G -0.247 | T -0.106
E17: F 1.97 | G 1.71 | A 2.25 | D 1.95
